Data reported in US20180346526.
Changes are numbered by the printed parent chain. Numbers in names are those of the source.

Target: T1, YydF18-49, truncated form of YydF with residues 18 to 49
T1 chain: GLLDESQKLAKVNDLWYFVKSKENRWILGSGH

B1: YydG C223A mutant (protein)
chain: MYNKTVSINLDSRCNASCDHCCFSSSPTSTTRMEKEYIRELVTEFAKNKTIQVISFTGGEVFLDYKFLKELMEIIKPYEKQITLISNGFWGLSKKKVQEYFHDMNSLNVIALTISYDEYHAPFVKSSSIKNILEHSRKYPDIDISLNMAVTKDKMSNHILEELGDSILGVKITKFPMISVGAAKTRIKQENIHKFYSLEDEDSLHCPGYDIVYHHDGEIYPCASPAIFETKITLREEYNQSFERTVEKLNSNLLLFILRKEGFKWFLNILKENNKIEEFDIPYEFSSICGVCGSLFNSAEKINYFYPYMEKYYNENFKV
epimerization activity on the peptide substrate (HPLC, LC-MS): The C223A mutation did not either prevent the epimerization activity

B2: YydG C22A mutant (protein)
chain: B1 chain with C22A, A223C
enzyme activity on the peptide substrate (HPLC): the C22A mutation did not affect the activity of the enzyme and the three epimerized peptides were produced

B3: YydG, radical SAM epimerase of Bacillus subtilis (wild type) (protein)
chain: B1 chain with A223C
Peptide 3*/Peptide 3 ratio relative to Peptide 2*/Peptide 2 ratio (tryptic peptide mapping): the Peptide 3*/Peptide 3 ratio was 5 times larger than the Peptide 2*/Peptide 2 ratio
epimerization of Ile residues: up to ˜35% of the Ile
epimerization of Val residues: ˜10% of Val residues
formation of epimerized peptide derivatives (HPLC): YydF18-49 proved to be a better substrate
moles of 5'-dA produced per mole of modified product: YydG produced one mole of 5′-dA per mole of modified product

B4: YydG A3 mutant (AxxxAxxA) (protein)
chain: B1 chain with C14A, C18A, C21A, A223C
conversion of the peptide substrate and SAM cleavage (HPLC): the A3 mutant was unable to convert the peptide substrate and to cleave SAM

B5: YydG C222A mutant (protein)
chain: B1 chain with C222A, A223C
enzyme activity on the peptide substrate (HPLC): The C222A mutant was also totally impaired for enzyme activity
